The nature of the series: soluble fraction after stress (log2 fold change); higher = more stays soluble; pooled small domains, quantitative proteomics. As to conditions: stress: pH 4. Put shortly:
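With high-throughput quantitative proteomics, pooled custom libraries of small protein domains were measured after pH 4 stress. Each domain's soluble amount after the stress gives a fold change taken as aggregation propensity. Higher log2 values mean more of the domain stayed soluble.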
Turning to “HMFESQYIGKIATAITDISAFSGRLKIYDENWEARTLGEDAPEIKKGAKVKIVRHDDLTMFVEKK”, the “soluble fraction (log2)” value came out at 0.087.

Consider “HMFETLVLALAQAWPAERGPVEALQFEGGRLSLQRSGFADEQVEALRQRLSSEGWTLQTEQGRLILNKAG”, for which the “soluble fraction (log2)” value is -1.11.

For “HMFFDSDTDIQNALNAENSIKKYQLFRTQTLYNSAQSDIDFVNQPEVKAKLFDALENLKNKLGFLAEPT”, the “soluble fraction (log2)” value was -0.4.

Consider “HMFGIEIPEEAGKLQDYTLTDDDLEGGNTLKEIQFPQGARVVIIRRDDKFIIPDGSVELQSGDQLLIIYGE”, for which the “soluble fraction (log2)” value was -1.81.

With “HMFGSKDVKRAIEDYAAAMSSQPRALSAPQRKVLIRHLATSGLLQLRGAAKIVADELGISRASVYNALKV”, the “soluble fraction (log2)” value came to 0.193.

In the case of “HMFHDPTMEETLINLKGITNEVLSLLSSSKIKKLEDLAEMSVPELRDIVENISDEEASALIMEARKPWF”, the “soluble fraction (log2)” value was -1.81.

“HMFHGEGVQANNIQAYIVLKMAAVNGAEDALDTADEVSEKMSREDLETATQVLGQIFRKYLMELQSA”: the “soluble fraction (log2)” value is -1.12.

Consider “HMFIKVEVPDLTGMTLTEVRKALEEKNLKMGDIRPAGQTSLVAKVINQSPQAKMVVDEYSEVSIQFEE”, for which the “soluble fraction (log2)” value is 0.166.

With “HMFIMQTVALGSEGPDVRALQSILNRIGYNAGTVDGIFGSRTRQAVIAFQRNNGLAADGVAGPATWG”, the “soluble fraction (log2)” value is -0.0509.

In the case of “HMFINITAITGNNYNTPDAARNALPNTYNKKIGLVFTYRDLTNRYRVYLYNSETSNYIPLDSYM”, the “soluble fraction (log2)” value is -1.28.

On to “HMFIPGDSVRVHVKVVEGSNERIQMFEGVVIARQGSGVRENFTVRRISYGVGIERTFPVHSPRL”, for which the “soluble fraction (log2)” value is -0.62.

Take “HMFISVDGLIHMGRTHLVILGGVEFARGDMIPETGEVVKSIGADSVVLELPDTGMRRTLNFV”: the “soluble fraction (log2)” value is -1.91.

On to “HMFKINNIIVSGLSEKSNLQTSEEIKNILFENIFFIKKDVLFKILEKNNLINSFEIKKIYPDTIEVKIKKT”, for which the “soluble fraction (log2)” value is -0.104.

For the sequence “HMFKITNTLNKTAEVYLTIPENKKGKGKIMISVNGAFHELEAMTENDKIQSGAVVKVVRIENDNILIVET”, the “soluble fraction (log2)” value is -1.96.

Turning to “HMFKMRVNGKEVIGMAITAKPQANPIDVADEIKKFVIDANTKLPSTMKLEVLYDATGIFRASISEVIS”, the “soluble fraction (log2)” value was -0.86.

For “HMFLDKDTLNQLYRFGIALTGNEQDSQDVLHTAIERFLRNKPQQINQQAAYIRTIMRNYWYDELRKLKTQ”, the “soluble fraction (log2)” value is -0.0981.

For “HMFLPETEVKSFFHRGITKISPSLAMDIADFFRMPFAVILKRALALEVISDEQYRSFMTVKPEHV”, the “soluble fraction (log2)” value was -0.0531.

Turning to “HMFLSQQDINRANAASVTDMGDIIRRTFERNAAEINGLELSDAEKKDAVKQMATLATTALKTAAGAVNPY”, the “soluble fraction (log2)” value is 0.152.

Consider “HMFLSSEERRERIIEVLRQQDEVTVVELSHRLGVSEVTTRKDLQQLEEQGYLTRVRGGAVVSGRGQL”, for which the “soluble fraction (log2)” value is -0.458.

On to “HMFMNFAEHLMALRKQRGWSQEELGSQIGVTRQTVSKWEMGQSTPELEKLVELSRLFGMSIDQLVGL”, for which the “soluble fraction (log2)” value is -0.00635.

For the sequence “HMFNISEKLKKYRNALGLTQTEVAEKIEITKPTYASYEKGKDISIGTLKKLADLFEVSFESFFSE”, the “soluble fraction (log2)” value is -0.336.

With “HMFNLFPHLSVLRNITLAPQKVKGLNRSESNEIAMSLLERVGIPEQSDKFPSQLSGGQQQRVAIARALAM”, the “soluble fraction (log2)” value came to 0.22.

Take “HMFPELSEEEQIIVSLLQKQPDGLQINTLVVESNIPVNRMSGILFELEMKGIIRMAAGGVYRLL”: the “soluble fraction (log2)” value is -0.785.

In the case of “HMFQEGLVAPPAYTRPESFRGWEVPEILRSGNFPAIAKWQHEESLRLTRERRPAMLEAYERRT”, the “soluble fraction (log2)” value was -0.415.

As for “HMFQNYTDAVVVASKTFFYNMPDESTRKSAYLIQGDRIMVEKSQRNFVYVTFTNEASGRTTTGWLKSDDLE”, the “soluble fraction (log2)” value is -0.00722.

As for “HMFSDDEINRLKARDSILVNLRDSEKQVWELYTDGKTVQNIANQLNKHKQSISATIINIKNKISRKQNMLK”, the “soluble fraction (log2)” value was -0.0225.

With “HMFSGVQLGQAISEAIKRKNVSQKEVADHFGVKQPSVSGWIKNGRIDKKHLDKLIDYFSDVVTPSHFGIE”, the “soluble fraction (log2)” value came out at 0.241.

On to “HMFSQDQIFLRSGEKIDARVIEVTPEFIKYKSKANPEGPLYSKKITDVLLITYANGTTEVYE”, for which the “soluble fraction (log2)” value was -0.749.

On to “HMFTDAEIKQFAAAAVEVTKIQQDSTISAADKQPKMLAVVQSSGLPPEKFNQIGQAAAADPALQQRIQA”, for which the “soluble fraction (log2)” value came to 0.159.

For “HMFTEPQKLVKRILNMLGHRYDDASIQARSDFQASNNYHKVQVKKKRESMEEYTAWLEEMYDAYRIN”, the “soluble fraction (log2)” value was determined as 0.0985.

Turning to “HMFTFEDMDKFESLLTTGLTDVQRRIYSLVTHDGKEYDLIAETLGISVEAVRMHMSRARKKIRENYKKID”, the “soluble fraction (log2)” value is -1.7.

For “HMFTIGENIRDLRLERAITQEQLAEQLNVSAPAVSKWERGEAYPDITLVPKLAEILGVSTDKLFGVD”, the “soluble fraction (log2)” value was -0.265.

As to “HMFTKYSPDFKLSVILDMRKNNLGYGEVVRKYWNLDSYKESDRHRSQVRLWERIFLEEGVEGFM”, the “soluble fraction (log2)” value is -1.77.

Consider “HMFTLDDLQATYDIFERAEQNSDAMLAFQKVITAEGLDFDLTSPQGIVDFFKGAAPTEIYDLYEAS”, for which the “soluble fraction (log2)” value is -0.956.

For the sequence “HMFTNSTSSRQLTNSDDTLRLNISSQTRQMLPNGQPFGGSLSGKLLLVIYGATTRSIPAQTTPEKIVV”, the “soluble fraction (log2)” value came to 0.105.

On to “HMFTSVDVAPDLRTAKVFYSVLGRKKSDKEINIAINQKRKAFKKFMGPELHLKNIPDLHFYYD”, for which the “soluble fraction (log2)” value worked out at 0.115.

With “HMFTYDLSERELTIIELVAKGLNNKELADTLFLSEGTIRNYLSTLLNKLDLRDRTQLAIFYYQHL”, the “soluble fraction (log2)” value is -2.93.

As for “HMFVEEGSLKKITFDTYEFNITDNLKSLRVTYQGLLPNLFREGQGVVIEGILLEQNYIQANTVF”, the “soluble fraction (log2)” value is -0.328.

Turning to “HMFVTGTTIKKLREEKRMTQGELAQMIGVSDKAVSKWETGRGLPDISLLEPLSRALGISVAELFAGQH”, the “soluble fraction (log2)” value was -0.0399.

On to “HMFWEGYLAARREQFLKDQQVLLGNEFRSNPDFWLEVASKEWAVVEERLSTGADVSEEVQETMGLDF”, for which the “soluble fraction (log2)” value was -1.5.

As to “HMFYNSSDNAYKILEINKSATVDEIKAAYRKMAKKYHPDKVIHLGQEHQKGAEEKFRQVQEAYEELQKERG”, the “soluble fraction (log2)” value turned out to be 0.297.

Take “HMGAAVEVISLRYRSAAELLPIVRSLLSTEGKISADERTNSLIIVDSDEAVARVIHSLATLDT”: the “soluble fraction (log2)” value was -0.851.

With “HMGADGIPGKNGENGETSYVHFAYATSADGKTGFSTTDTVGKTYMGQYADFEKADSEDPTKYRWGKFQGP”, the “soluble fraction (log2)” value was at least 0.43.

In the case of “HMGAFAIHTASELSAGMRIRHERFGPGVITGIDTANPASGARIQVDFDNGTSKTLLLSYAKFQI”, the “soluble fraction (log2)” value stood at 0.22.

Turning to “HMGAGKVVDGVTYDFVFDVDVADGQPPLRLPYNRGEDVYQAAERFILRNELPATYREQIVNFIVQNTPG”, the “soluble fraction (log2)” value was -1.79.

As to “HMGAISGEQREFYTVFRGHLNSHVGEFKVEDIENLLMKAKTEVPDLLEEEFLKMGEAILNRYRN”, the “soluble fraction (log2)” value was -0.966.

Consider “HMGAKEHLAGETLRMAVELLSEKQGIPAEQALIRFISSPVYDALYDLDTGMWTQGPTRLLEAFEALE”, for which the “soluble fraction (log2)” value was -1.69.

On to “HMGALARLLASVEQELGVTRDRMTRTQKQEAVTLLNEWGAFTLRKSVEDVAEALGVSRFTVYNYLERAEA”, for which the “soluble fraction (log2)” value is -0.866.

Regarding “HMGALSLDMLFDRFDALQEQSMGDKTEGGQELRGMIRTFIEQEKLDIRVTRTTTNAALLEMIEKEMQG”, the “soluble fraction (log2)” value is 0.0204.

With “HMGASALTEREREVLRLLEGGGSDKRIARQLAISEHGVRYHLKSIYKKLGVHDRVSAIAAGRRLAS”, the “soluble fraction (log2)” value was at least 0.43.

“HMGASTQLVEIKNAYENGEWQNVIDLAGKLHEKYNGSEEDKEAQEMAKNSQSKLDEAAAAKAAEEA”: the “soluble fraction (log2)” value was found to be 0.184.

As to “HMGASYSQFLDQVDSGNVQKVAFGGDMRGGTSQLTYTTRGGQSSTITAPFDRDLINVLRTKNVEIVQEEP”, the “soluble fraction (log2)” value was 0.0587.

Turning to “HMGATFITSSKDNAINIRQAAGTDSKVIETIKNGHILESSEKSGEWYKVTYYDSDIKKTFTGYIHNSQLK”, the “soluble fraction (log2)” value is -0.162.

As to “HMGAVQFAEQKIHIGSRWIGKKISEFSAESDAFVILIKRGSEVVIPRGPTDIVENDVLVIHVPD”, the “soluble fraction (log2)” value was -1.8.

With “HMGAVVSPMPGVILDIKVKEGDSVSEGQTVIILEAMKMENEIVSEFTGTVSAIRVKKGDTVDTDAVLVEI”, the “soluble fraction (log2)” value was -1.04.

Consider “HMGAYPENSLLKERGQSAVYLIQENRKRLFFNAEAFLINGYNWKDIQVVDDLSKILTGKVIYAK”, for which the “soluble fraction (log2)” value is -1.48.

As to “HMGDAATVFRDHYNINSAAQAQAALDRKEALWEQPNPWRDSDNREVFDWAAQTVKDRFDSGKYKPK”, the “soluble fraction (log2)” value was -0.107.

Consider “HMGDDVRKNILDVLSKFERVDITDLDSLELVRFYLEIEDIFDIEIKENDFYRLKSVDSIVDYIRNKSFF”, for which the “soluble fraction (log2)” value is -1.64.

Regarding “HMGDIQFMEYRINHSSGWIGKNISDFAAVSKNLVILIKRGQDVVIPRGPTAIMEDDVLVLHA”, the “soluble fraction (log2)” value is -1.15.

For “HMGDITALMPGKVIQIIVKEGQEIKVGDPLIVIESMKMENTISSEVNGTIKSINIQIDDNVQFDQVLFTV”, the “soluble fraction (log2)” value was -1.03.

On to “HMGDITIPDLQGMSFDQAREKLKALGLSIGKISYTSDTSKDDGVVISQGLQAGGKASKGATVDITINET”, for which the “soluble fraction (log2)” value is -0.177.

Consider “HMGDLEEAVKDFSEAIRLNDSWAEAYANRAVVYAEQGDAAQSDQDAEKARLLGVDQNRLNEMLNAVNS”, for which the “soluble fraction (log2)” value was -0.21.

“HMGDLKALMPGKVTQVLVSGGQKVKVGEPVLLMESMKMEQTIVATKDGDISEILVSEGDTVEVGKIMIKI”: the “soluble fraction (log2)” value was determined as 0.0925.

Take “HMGDLTVPDLSGLTVDQAKQRLKDMGLVLGKITTQEDSSKPDGVIISQSPSADGKINKGQLVDVVVNKLS”: the “soluble fraction (log2)” value was 0.206.

For “HMGDTHKVPGVKGVNVEQAMDMLSRLDLKAVVIDSVYVKDKKLGTVIEQNPVEGSVVKPGRPIYLVVNSRS”, the “soluble fraction (log2)” value is -0.0241.

Regarding “HMGDTISVPAVRTLAYNKAMDILNAEGLKGIVADSVYDNHTAPGTVIEQNPKAGTIVKEGREVFLTIHA”, the “soluble fraction (log2)” value was -0.0483.

Turning to “HMGDWITGTVTRIADNGWGTFQPENAHNTVSIPPKMVADNQLKEADSIKIIAEPSPDGTKTFIKAISRE”, the “soluble fraction (log2)” value was found to be 0.214.

“HMGEDSEPVQVPDVTGQPLWEARRTLSSMGLKVLDDGGSGSVTAQMPSAGATLRNGGQMMLYTYDEALPE”: the “soluble fraction (log2)” value stood at 0.033.

Take “HMGEEIRTWTDAQGRKIEARMSMLDGDQVLLELKDGRKIPYPLAKLSADDAHYARHFASASASD”: the “soluble fraction (log2)” value is -0.00959.
